Measured values reported in patent US20170066831A1 (Janssen / Centocor, published 2017).
Like-named read-outs stand apart in the source and are kept apart here.

Columns and labels:
[1] = biological target: T1, human ST2L extracellular domain with C-terminal His6 tag (human, UniProt Q01638 19-328); test: SPR, mAb captured, ST2L-ECD in solution
T1 construct: also called huST2L-ECD; ST2L-ECD
T1 sequence: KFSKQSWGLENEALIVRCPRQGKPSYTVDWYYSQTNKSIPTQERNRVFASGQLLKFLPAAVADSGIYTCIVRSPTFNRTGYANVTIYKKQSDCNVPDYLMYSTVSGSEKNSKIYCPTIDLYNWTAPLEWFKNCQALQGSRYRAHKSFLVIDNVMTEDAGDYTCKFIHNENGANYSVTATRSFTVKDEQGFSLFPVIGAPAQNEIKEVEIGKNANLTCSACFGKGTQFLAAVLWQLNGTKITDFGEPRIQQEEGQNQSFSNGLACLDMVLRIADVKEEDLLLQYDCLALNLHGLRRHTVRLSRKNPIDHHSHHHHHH

[2] = biological target: T2, cynomolgus (Macaca fascicularis) ST2L extracellular domain with C-terminal His6 tag (Macaca fascicularis (cynomolgus), UniProt Q01638 19-321 (human entry)); test: SPR, mAb captured, ST2L-ECD in solution
T2 construct: also called cyno ST2L-ECD; cynoST2L-ECD
T2 chain: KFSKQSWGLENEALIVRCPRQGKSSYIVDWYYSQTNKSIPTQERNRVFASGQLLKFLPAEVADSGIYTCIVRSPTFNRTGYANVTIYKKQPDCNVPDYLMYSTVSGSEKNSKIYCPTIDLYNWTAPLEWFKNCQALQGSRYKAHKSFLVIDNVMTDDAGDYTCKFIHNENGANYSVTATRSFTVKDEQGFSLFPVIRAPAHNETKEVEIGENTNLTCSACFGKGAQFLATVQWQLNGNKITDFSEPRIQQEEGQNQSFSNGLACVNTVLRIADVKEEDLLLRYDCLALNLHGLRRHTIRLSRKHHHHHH

[3] = biological target: T3, mouse ST2L extracellular domain (mouse, UniProt P14719 28-326); test: domain binding assay
T3 construct: also called mouse ST2L-ECD; muST2L-ECD
T3 sequence: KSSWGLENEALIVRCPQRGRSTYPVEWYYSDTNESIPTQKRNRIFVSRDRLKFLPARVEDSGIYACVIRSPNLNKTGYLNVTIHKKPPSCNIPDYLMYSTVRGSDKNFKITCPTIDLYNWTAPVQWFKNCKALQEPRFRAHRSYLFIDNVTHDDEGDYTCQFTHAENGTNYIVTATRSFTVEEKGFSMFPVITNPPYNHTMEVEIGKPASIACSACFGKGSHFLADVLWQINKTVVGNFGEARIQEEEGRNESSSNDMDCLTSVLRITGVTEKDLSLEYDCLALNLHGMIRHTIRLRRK
Experimental: Antibody binding to ST2L domain I, II and III was determined using standard capture ELISA assay using electrochemiluminescent detection format (Meso-Scale Discovery (MSD) technology). 10 μg/mL of each antibody was coated onto each well of an MSD HighBind plate (5 μL/well) for 2 hr at room temperature. […] The plate was covered with aluminum foil and incubated for 1 hr at room temperature with gentle shaking. The plate was then washed 3 times with HEPES wash buffer. MSD read buffer (150 μl) was added to each well, and the plate was then read using an MSD Sector Imager 6000.

[4] = biological target: T1, human ST2L extracellular domain with …; test: RLB ELISA: biotinylated IL-33 on coated huST2L-ECD, antibody titrated
How it was run: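 Plates coated 16 h at 4 °C with His6-tagged ST2L-ECD (human aa 19-328, 4 μg/ml; cyno aa 19-321, 2 μg/ml). Titrated mAbs applied 1 h at RT, then biotinylated IL-33 added 30 min (human 112-270 at 100 ng/ml final; cyno 112-269 at 200 ng/ml final). Bound ligand detected with streptavidin-HRP/TMB, OD450.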

[5] = biological target: T4, human ST2L, full length, on cells (human, UniProt Q01638 19-556); test: cell-based or functional assay
T4 sequence: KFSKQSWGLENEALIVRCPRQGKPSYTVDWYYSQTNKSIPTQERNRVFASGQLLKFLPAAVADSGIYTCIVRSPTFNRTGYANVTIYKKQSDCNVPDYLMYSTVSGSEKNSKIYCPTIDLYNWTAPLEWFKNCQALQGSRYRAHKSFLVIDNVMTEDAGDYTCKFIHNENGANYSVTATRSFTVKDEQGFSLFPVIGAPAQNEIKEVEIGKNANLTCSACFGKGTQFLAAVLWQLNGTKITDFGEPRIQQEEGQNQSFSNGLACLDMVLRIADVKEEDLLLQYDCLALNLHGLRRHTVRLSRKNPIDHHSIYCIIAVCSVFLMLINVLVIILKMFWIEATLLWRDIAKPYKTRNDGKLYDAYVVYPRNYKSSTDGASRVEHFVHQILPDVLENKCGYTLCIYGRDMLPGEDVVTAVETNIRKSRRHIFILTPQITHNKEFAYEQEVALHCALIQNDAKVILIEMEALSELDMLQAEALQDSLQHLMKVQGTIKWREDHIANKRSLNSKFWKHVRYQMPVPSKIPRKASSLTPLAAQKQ

[6] = biological target: T1, human ST2L extracellular domain with …; test: SPR, mAb captured, ST2L-ECD in solution; remark: listed apart in the source
[7] = biological target: T2, cynomolgus (Macaca fascicularis) ST2L …; test: SPR, mAb captured, ST2L-ECD in solution

B1: C2519 (antibody, V domains shown)
VH: EFQLQQSGPELVKPGASVKISCKASGYSFTDYNMNWVKQSHGKSLEWIGNINPYYGSTTYNQKFKGKATLTVDKSSNTAYMHLNSLTSEDSAVYYCAREGDTYLAWFAYWGQGTLVTVSA
VL: DVLMTQTPLSLPVSLGDQASISCRSSQSIVYSNGNTYLEWYLQKPGQSPKLLIYKVSNRFSGVPDRFSGSGSGTDFTLKISRVEAEDLGVYYCFQGSHVPPTFGGGTKLEIK
notes: Mouse hybridoma antibody; also called C2519A
Kd [1]: 0.18 nM
koff [1]: 8.7e-05 s⁻¹
kon [1]: 483000 M⁻¹ s⁻¹
Kd [2]: 44.8 nM
koff [2]: 0.0032 s⁻¹
kon [2]: 71400 M⁻¹ s⁻¹

B2: C2521 (antibody, V domains shown)
VH: QIQLQQSGPELVRPGTSVKISCKASGYTFLTYWMNWVKQRPGQGLEWIGQIFPASGSTYYNEMFKDKATLTVDTSSSTAYMQLSSLTSEDTAVYFCARSENIYYINFQYYFAYWGQGTTLTVSS
VL: ILLTQSPAILSVSPGERVSFSCRASQNIGTRMHWYQQRTNGSPRLLIKYASESISGIPSRFSGSGSGTDFTLTISSVESEDIADYYCQQSNTWPFTFGSGTKLEIK
notes: Mouse hybridoma antibody; also called C2521A
Kd [1]: 0.079 nM
koff [1]: 4.9e-05 s⁻¹
kon [1]: 618000 M⁻¹ s⁻¹
Kd [2]: 3.71 nM
koff [2]: 0.00166 s⁻¹
kon [2]: 447000 M⁻¹ s⁻¹

B3: ST2M48 (antibody, V domains shown)
VH: EVQLVQSGAEVKKPGESLKISCKGSGYSFTSYWIGWVRQMPGKGLEWMGIIYPGDSYTRYSPSFQGQVTISADKSISTAYLQWSSLKASDTAMYYCARLSGRFDYWGQGTLVTVSS
VL: EIVLTQSPATLSLSPGERATLSCRASQSVRDALAWYQQKPGQAPRLLIYFASNRATGIPARFSGSGSGTDFTLTISSLEPEDFAVYYCQQFNTWPITFGQGTKVEIK
notes: Phage-derived Fab converted to IgG
binding result [3]: binds
Kd [1]: 0.056 nM
koff [1]: 7.33e-05 s⁻¹
kon [1]: 1.32e+06 M⁻¹ s⁻¹
Kd [2]: 0.257 nM
koff [2]: 0.00265 s⁻¹
kon [2]: 1.03e+07 M⁻¹ s⁻¹

B4: STLM227 (antibody, V domains shown)
VH: EVQLVQSGAEVKKPGATVKISCKVSAFNIKDDYMHWVQQAPGKGLEWMGRIDPAIGNTEYAEKFQGRVTITADTSTDTAYMELSSLRSEDTAVYYCATGDFYAMAYWGQGTLVTVSS
VL: DIQLTQSPSFLSASVGDRVTITCITNTDIDDVIHWYQQKPGKAPKLLIYEGNTLRPGVPSRFSGSGSGTEFTLTISSLQPEDFATYYCLQSDNMLTFGQGTKLEIK
notes: VH STLH201 + VL STLL277
IC50 [4]: 0.17 µg/mL
RGA IC50 [5]: 0.23 µg/mL
Kd [6]: 0.064 nM
koff [6]: 0.0017 s⁻¹
kon [6]: 2.66e+07 M⁻¹ s⁻¹
Kd [7]: 0.294 nM
koff [7]: 0.0294 s⁻¹
kon [7]: 1e+08 M⁻¹ s⁻¹

B5: STLM229 (antibody, V domains shown)
VH: EVQLVQSGAEVKKPGATVKISCKVSAFNIKDDYMHWVQQAPGKGLEWMGRIDPAIGNTEYAEKFQGRVTITADTSTDTAYMELSSLRSEDTAVYYCATGDFYAMAYWGQGTLVTVSS
VL: DIQMTQSPSSVSASVGDRVTITCITNTDIDDVIHWYQQKPGKAPKLLIYEGNTLRPGVPSRFSGSGSGTDFTLTISSLQPEDFATYYCLQSDNMLTFGQGTKLEIK
notes: VH STLH201 + VL STLL275
IC50 [4]: 0.29 µg/mL
RGA IC50 [5]: 0.32 µg/mL
Kd [6]: 0.035 nM
koff [6]: 0.000445 s⁻¹
kon [6]: 1.29e+07 M⁻¹ s⁻¹
Kd [7]: 0.085 nM
koff [7]: 0.0085 s⁻¹
kon [7]: 1e+08 M⁻¹ s⁻¹

B6: STLM230 (antibody, V domains shown)
VH: EVQLVQSGAEVKKPGATVKISCKVSAFNIKDDYMHWVQQAPGKGLEWMGRIDPAIGNTEYAEKFQGRVTITADTSTDTAYMELSSLRSEDTAVYYCATGDFYAMAYWGQGTLVTVSS
VL: DIQMTQSPSSLSASVGDRVTITCITNTDIDDVIHWYQQKPGKAPKLLIYEGNTLRPGVPSRFSGSGSGTDFTLTISSLQPEDFATYYCLQSDNMLTFGQGTKLEIK
notes: VH STLH201 + VL STLL274
IC50 [4]: 0.28 µg/mL
RGA IC50 [5]: 0.15 µg/mL
Kd [6]: 0.038 nM
koff [6]: 0.000426 s⁻¹
kon [6]: 1.11e+07 M⁻¹ s⁻¹
Kd [7]: 0.144 nM
koff [7]: 0.0073 s⁻¹
kon [7]: 5.06e+07 M⁻¹ s⁻¹

B7: STLM231 (antibody, V domains shown)
VH: EVQLVQSGAEVKKPGATVKISCKVSAFNIKDDYMHWVQQAPGKGLEWMGRIDPAIGNTEYAEKFQGRVTITADTSTDTAYMELSSLRSEDTAVYYCATGDFYAMAYWGQGTLVTVSS
VL: DIQMTQSPSSLSASVGDRVTITCITNTDIDDVIHWYQQKPGKVPKLLIYEGNTLRPGVPSRFSGSGSGTDFTLTISSLQPEDVATYYCLQSDNMLTFGQGTKLEIK
notes: VH STLH201 + VL STLL273; also called S1LM231
IC50 [4]: 0.26 µg/mL
RGA IC50 [5]: 1.1 µg/mL
Kd [6]: 0.046 nM
koff [6]: 0.000913 s⁻¹
kon [6]: 1.97e+07 M⁻¹ s⁻¹
Kd [7]: 0.172 nM
koff [7]: 0.0143 s⁻¹
kon [7]: 8.27e+07 M⁻¹ s⁻¹

B8: STLM228 (antibody, V domains shown)
VH: EVQLVQSGAEVKKPGATVKISCKVSAFNIKDDYMHWVQQAPGKGLEWMGRIDPAIGNTEYAEKFQGRVTITADTSTDTAYMELSSLRSEDTAVYYCATGDFYAMAYWGQGTLVTVSS
VL: DIQMTQSPSTLSASVGDRVTITCITNTDIDDVIHWYQQKPGKAPKLLIYEGNTLRPGVPSRFSGSGSGTEFTLTISSLQPDDFATYYCLQSDNMLTFGQGTKLEIK
notes: VH STLH201 + VL STLL276
IC50 [4]: 0.2 µg/mL
RGA IC50 [5]: 0.28 µg/mL
Kd [6]: 0.052 nM
koff [6]: 0.00104 s⁻¹
kon [6]: 2.01e+07 M⁻¹ s⁻¹
Kd [7]: 0.155 nM
koff [7]: 0.0155 s⁻¹
kon [7]: 1e+08 M⁻¹ s⁻¹

B9: STLM232 (antibody, V domains shown)
VH: EVQLVQSGAEVKKPGATVKISCKVSAFNIKDDYMHWVQQAPGKGLEWMGRIDPAIGNTEYAEKFQGRVTITADTSTDTAYMELSSLRSEDTAVYYCATGDFYAMAYWGQGTLVTVSS
VL: DIQMTQSPSSLSASVGDRVTITCITNTDIDDVIHWYQQKPGKAPKLLIYEGNTLRPGVPSRFSGSGSGTDFTFTISSLQPEDIATYYCLQSDNMLTFGQGTKLEIK
notes: VH STLH201 + VL STLL272
IC50 [4]: 0.31 µg/mL
RGA IC50 [5]: 0.15 µg/mL
Kd [6]: 0.025 nM
koff [6]: 0.000449 s⁻¹
kon [6]: 1.78e+07 M⁻¹ s⁻¹
Kd [7]: 0.08 nM
koff [7]: 0.00797 s⁻¹
kon [7]: 1e+08 M⁻¹ s⁻¹
